The values below come from paper PMC8552062, “Contributions of UDP-Glucuronosyltransferases to Human Hepatic and Intestinal Metabolism of Ticagrelor and Inhibition of UGTs and Cytochrome P450 Enzymes by Ticagrelor and its Glucuronidated Metabolite” (Frontiers in Pharmacology, 2021).

Substrate in series [1]: CCCSc1nc(N[C@@H]2C[C@H]2c2ccc(F)c(F)c2)c2nnn([C@@H]3C[C@H](OCCO)[C@@H](O)[C@H]3O)c2n1
Kind of series: Ticagrelor glucuronidation by recombinant human UGT1A3. The settings on record: other: recombinant UGT1A3, Michaelis-Menten kinetics; pH 7.4; 37.0 °C. Format: in vitro ADME. The procedure: (§1) Ticagrelor glucuronidation was investigated in an in vitro incubation system by using HLM, HIM, and recombinant human UGTs. The incubation system consisted of enzyme sources (HLM, HIM, or human recombinant UGTs), various concentrations of ticagrelor (dissolved in 50% methanol, 1% v/v, 1, 2, 5, 10, 20, 50, 100, 200, 500 μM of final concentration), alamethicin (50 μg/mg protein), 5 mM MgCl2, 100 mM tris-HCL buffer (pH 7.4), and 5 mM UDPGA in a total volume of 100 μl. Alamethicin is a pore-forming polypeptide used to activate UGTs in HLM and HIM ([Fisher et al., 2000]). Preliminary studies were conducted to determine the optimal protein concentrations and incubation times. Linear conditions of ticagrelor-O-Glu formation from ticagrelor, i.e., HLM, 0.2 mg of protein/ml and 60 min, HIM, 0.2 mg of protein/ml and 60 min, and recombinant human UGTs, 0.2 mg of protein/ml and 60 min were selected. The incubation mixture without UDPGA was placed on ice for 15 min to activate UGT by alamethicin. After pre-incubation for 5 min at 37°C, the reactions were started by the addition of UDPGA. After another 60 min of incubation at 37°C, the reaction was terminated by adding 100 μl of acetonitrile containing internal standard (diazepam). The mixture vortexed for 2 min and then centrifuged at 14,000 rpm for 10 min at 4°C. The resulting supernatant was injected into a liquid chromatography tandem mass spectrometry (LC-MS/MS, Applied Biosystems/MDS Sciex, Foster City, CA) system for the detection of ticagrelor-O-Glu.
(§2) Kinetic analyses were performed using the mean values of triplicate determinations with either pooled HLM, HIM, or recombinant human UGTs. All data were analyzed by nonlinear regression analysis using the GraphPad Prism 6 (GraphPad Software Inc., CA, United States). Michaelis-Menten kinetics (Eq. 1) or substrate inhibition kinetics (Eq. 2) ([Houston and Kenworthy, 2000]) were tested to determine the optimal model for describing the data. […] Intrinsic clearance (CLint) was calculated by dividing Vmax by Km.

Substrate in series [2]: CCCSc1nc(N[C@@H]2C[C@H]2c2ccc(F)c(F)c2)c2nnn([C@@H]3C[C@H](OCCO)[C@@H](O)[C@H]3O)c2n1
Put plainly: Ticagrelor glucuronidation by recombinant human UGT1A4. Format: in vitro ADME. The settings on record: other: recombinant UGT1A4, Michaelis-Menten kinetics; pH 7.4; 37.0 °C. The procedure: as §1, §2

B1: recombinant human UGT1A3 (Homo sapiens) (protein)
chain: GKVLVVPIDGSHWLSMREVLRELHARGHQAVVLTPEVNMHIKEENFFTLTTYAISWTQDEFDRHVLGHTQLYFETEHFLKKFFRSMAMLNNMSLVYHRSCVELLHNEALIRHLNATSFDVVLTDPVNLCAAVLAKYLSIPTVFFLRNIPCDLDFKGTQCPNPSSYIPRLLTTNSDHMTFMQRVKNMLYPLALSYICHAFSAPYASLASELFQREVSVVDILSHASVWLFRGDFVMDYPRPIMPNMVFIGGINCANRKPLSQEFEAYINASGEHGIVVFSLGSMVSEIPEKKAMAIADALGKIPQTVLWRYTGTRPSNLANNTILVKWLPQNDLLGHPMTRAFITHAGSHGVYESICNGVPMVMMPLFGDQMDNAKRMETKGAGVTLNVLEMTSEDLENALKAVINDKSYKENIMRLSSLHKDRPVEPLDLAVFWVEFVMRHKGAPHLRPAAHDLTWYQYHSLDVIGFLLAVVLTVAFITFKCCAYGYRKCLGKKGRVKKAHKSKTH
notes: purchased BD Gentest; host or cells: baculovirus-infected insect cells
As for B1, in series [1], the Michaelis-Menten constant (Km) came to 19.19 µM, the Vmax is 7.8e-07 µmol/min/mg and the Vmax/Km was 0.04 µL/min/mg.

B2: recombinant human UGT1A4 (Homo sapiens) (protein)
chain: GKVLVVPTDGSPWLSMREALRELHARGHQAVVLTPEVNMHIKEEKFFTLTAYAVPWTQKEFDRVTLGYTQGFFETEHLLKRYSRSMAIMNNVSLALHRCCVELLHNEALIRHLNATSFDVVLTDPVNLCGAVLAKYLSIPAVFFWRYIPCDLDFKGTQCPNPSSYIPKLLTTNSDHMTFLQRVKNMLYPLALSYICHTFSAPYASLASELFQREVSVVDLVSYASVWLFRGDFVMDYPRPIMPNMVFIGGINCANGKPLSQEFEAYINASGEHGIVVFSLGSMVSEIPEKKAMAIADALGKIPQTVLWRYTGTRPSNLANNTILVKWLPQNDLLGHPMTRAFITHAGSHGVYESICNGVPMVMMPLFGDQMDNAKRMETKGAGVTLNVLEMTSEDLENALKAVINDKSYKENIMRLSSLHKDRPVEPLDLAVFWVEFVMRHKGAPHLRPAAHDLTWYQYHSLDVIGFLLAVVLTVAFITFKCCAYGYRKCLGKKGRVKKAHKSKTH
notes: as for B1
Regarding B2, in series [2], the Km was 10.28 µM, the Vmax stood at 3.6e-07 µmol/min/mg and the Vmax/Km is 0.04 µL/min/mg.
